Assay results as given in article PMC9709071, “A stable, engineered TL1A ligand co-stimulates T cells via specific binding to DR3” (Scientific Reports, 2022).
Residue numbers refer to the chain shown, from its start. Names and notes keep the numbering of the source.

B1: His-TL1A (TL1W2) (ligand, human, UniProt O95150 1-251, looked up)
chain: VYAPLRADGDKPRAHLTVVRQTPTQHFKNQFPALHWEHELGLAFTKNRMNYTNKFLLIPESGDYFIYSQVTFRGMTSECSEIRQAGRPNKPDSITVVITKVTDSYPEPTQLLMGTKSVCEVGSNWFQPIYLGAMFSLQEGDKLMVNVSDISLVDYTKEDKTFFGAFLL
notes: TL1A (TNFSF15), human; C-terminal extracellular domain comprising the TNF homology domain; non-covalent trimer; also called wild-type TL1A; source: Expi293 cells, transfected, purified (Ni-NTA, preparative gel filtration)
B2: Fc-TL1A (TL1W3) (Fc fusion, human, UniProt O95150 1-251, looked up)
chain: B1 chain
notes: TL1A (TNFSF15), human; C-terminal extracellular domain comprising the TNF homology domain; 3:2 ratio of Fc:TL1A trimers; also called Fc-TL1A W3; source: Expi293 cells, transfected, purified (mAbSelect SuRe, preparative gel filtration); not shown: Fc (IgG1), N-terminal, kept
B3: HSA-TL1A (TL1W9) (ligand, human, UniProt O95150 1-251, looked up)
chain: B1 chain
notes: TL1A (TNFSF15), human; C-terminal extracellular domain comprising the TNF homology domain; ratio of HSA to TL1A trimer 3:1; source: Expi293 cells, transfected, purified (Ni-NTA, preparative gel filtration); not shown: HSA (human serum albumin), N-terminal, kept
B4: TL1W328.001 (K111A L123K M158Y Q167A S187L N207F) (Fc fusion, human)
chain: VYAPLRADGDKPRAHLTVVRQTPTQHFANQFPALHWEHEKGLAFTKNRMNYTNKFLLIPESGDYFIYSQVTFRGYTSECSEIRAAGRPNKPDSITVVITKVTDLYPEPTQLLMGTKSVCEVGSFWFQPIYLGAMFSLQEGDKLMVNVSDISLVDYTKEDKTFFGAFLLGGSGGSGGSVYAPLRADGDKPRAHLTVVRQTPTQHFANQFPALHWEHEKGLAFTKNRMNYTNKFLLIPESGDYFIYSQVTFRGYTSECSEIRAAGRPNKPDSITVVITKVTDLYPEPTQLLMGTKSVCEVGSFWFQPIYLGAMFSLQEGDKLMVNVSDISLVDYTKEDKTFFGAFLLGGSGGSGGSVYAPLRADGDKPRAHLTVVRQTPTQHFANQFPALHWEHEKGLAFTKNRMNYTNKFLLIPESGDYFIYSQVTFRGYTSECSEIRAAGRPNKPDSITVVITKVTDLYPEPTQLLMGTKSVCEVGSFWFQPIYLGAMFSLQEGDKLMVNVSDISLVDYTKEDKTFFGAFLL
notes: TL1A (TNFSF15), human, residues 84-251; first of three units; linker between TL1A units; second unit; third unit; combination mutant in the Fc-scTL1A format; the mutations are written on each of the three TL1A units; source: Expi293 cells, transfected, purified (mAbSelect SuRe); not shown: Fc (IgG1), N-terminal, kept
B5: TL1W327.001 (K111A L123K M158Y Q167A S187L E190F) (Fc fusion, human)
chain: B4 chain with E107F, F124N, E284F, F301N, E461F, F478N
notes: TL1A (TNFSF15), human, residues 84-251; first of three units; linker between TL1A units; second unit; third unit; combination mutant in the Fc-scTL1A format; the mutations are written on each of the three TL1A units; also called AKYALF190; source: Expi293 cells, transfected, purified (mAbSelect SuRe); not shown: Fc (IgG1), N-terminal, kept
B6: TL1W329.001 (K111A L123K M158Y Q167A E190F N207F) (Fc fusion, human)
chain: B4 chain with L104S, E107F, L281S, E284F, L458S, E461F
notes: as for B4
B7: TL1W331.001 (K111A L123K Q167A S187L E190F N207F) (Fc fusion, human)
chain: B4 chain with Y75M, E107F, Y252M, E284F, Y429M, E461F
notes: TL1A (TNFSF15), human, residues 84-251; first of three units; linker between TL1A units; second unit; third unit; combination mutant in the Fc-scTL1A format; the mutations are written on each of the three TL1A units; also called Fc-scTL1A-AKALFF; Fc-scTL1A AKALFF; source: Expi293 cells, transfected, purified (mAbSelect SuRe); not shown: Fc (IgG1), N-terminal, kept
B8: Recombinant DR3-Fc (Fc fusion, UniProt Q93038 25-199, looked up)
chain: QGGTRSPRCDCAGDFHKKIGLFCCRGCPAGHYLKAPCTEPCGNSTCLVCPQDTFLAWENHHNSECARCQACDEQASQVALENCSAVADTRCGCKPGWFVECQVSQCVSSSPFYCQPCLDCGALHRHTRLLCSRRDTDCGTCLPGFYEHGDGCVSCPTSTLGSCPERCAAVCGWRQ
notes: death receptor 3 (DR3); dimeric MW ~92 kDa as printed; the catalogue product is, as I recall, the human extracellular domain fused to human IgG1 Fc; also called death receptor 3; source: bought: R&D Systems, cat. # 943-D3

Key:
[1] = target: B8; assay: ELISA; DR3-Fc immobilised non-specifically on Maxisorp plates (overnight, 4 °C), casein block; TL1A added in 3-fold dilutions, overnight 4 °C; bound TL1A detected with polyclonal rabbit anti-human TL1A-biotin and streptavidin-HRP; concentrations normalised to TL1A trimers; triplicate; details: both partners purified
[2] = target: the molecule itself; assay: SEC; preparative gel filtration after affinity capture, Sepax SRT-C SEC-300, 20 mM sodium phosphate pH 6.8; the main peak is taken as the target oligomer
[3] = target: T1, DcR3 (TNFRSF6B) (UniProt O95407 30-300); assay: ELISA; TL1A variants on DcR3; who was immobilised is not told for DcR3; triplicate; details: both partners purified
T1 construct: soluble decoy receptor DcR3 (TNFRSF6B); the catalogue product is, as I recall, an Fc chimera; the SPR methods name capture by goat anti-human-Fc; also called decoy receptor DcR3; recombinant DcR3 protein
T1 sequence (looked up): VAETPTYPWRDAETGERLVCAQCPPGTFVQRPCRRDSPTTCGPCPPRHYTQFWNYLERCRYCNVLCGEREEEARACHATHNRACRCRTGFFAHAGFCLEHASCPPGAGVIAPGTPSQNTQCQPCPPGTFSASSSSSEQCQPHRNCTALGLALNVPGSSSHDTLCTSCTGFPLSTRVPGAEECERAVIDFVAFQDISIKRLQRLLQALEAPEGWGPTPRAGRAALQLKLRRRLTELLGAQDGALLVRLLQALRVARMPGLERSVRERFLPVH

[4] = target: B1; assay: ELISA; reversed format: TL1A molecules immobilised, DR3 titrated; details: both partners purified
[5] = target: B3; assay: as above; details: both partners purified
[6] = target: B2; assay: as above; details: both partners purified

Binder	EC50 [1] [nM]	stoichiometry N [2]	further results
B1	26.2	3	EC50 [3]: 4.6 nM
B2		6	
B3		3	
B4	8.8		
B5	37.5		
B6	8.7		
B7	9		
B8			EC50 [4]: 2.5 nM; EC50 [5]: > 4000 nM; EC50 [6]: 2.6 nM
